Measurements as given in patent publication US20140350088.
pKd: −log10 of the molar value.

Key:
[1] = target: biotinylated human glucagon (Homo sapiens) (UniProt P01275); test: SPR; conditions: 37 C, HBS-EP pH 7.4
[2] = target: T1, human alpha-CGRP (Homo sapiens) (UniProt P06881); test: SPR; conditions: L-RNA, 37 C
T1 sequence: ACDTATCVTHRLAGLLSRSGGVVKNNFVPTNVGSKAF

[3] = target: biotinylated human glucagon (Homo sapiens) (UniProt P01275); test: competition; conditions: L-DNA; competitive pull-down, 37 C, 1 mM Mg, 1 mM Ca
[4] = target: T2, human C5a (Homo sapiens) (UniProt P01031); test: SPR; conditions: L-RNA; 37 C, HBS-EP pH 7.4
T2 sequence: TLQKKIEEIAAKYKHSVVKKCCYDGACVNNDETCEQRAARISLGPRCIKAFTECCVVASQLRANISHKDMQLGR

Chain of biotinylated human glucagon (Homo sapiens) (P01275 53-81): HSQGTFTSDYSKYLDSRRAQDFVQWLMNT

Sequence: ACTCGAGAGGAAAGGTTGGTAAAGGTTCGGTTGGATTCACTCGAGT [259-H6-002]
- pKd ([1]; L-DNA): 7.96

Sequence: CAGACGUGUGUGGGUAGAUGCACCUGCGAUUCGCUAAAAAGUGCCACACGUCUG [NOX-G11stabi2]
- pKd ([1]; L-RNA): 7.17

Sequence: CCGUGCUGUCGGAGACUACUCGUCGAGUAGAAAUAGGUCCCCUCCCACGG [226-F2-001-D41/D44]
- pKd ([2]; dC at 41 and 44, 13-fold improvement over parent): 9.70

Sequence: CCGUGCUGUCGGAGACUACUCGUCGAGUAGAAAUAGGUCCCCUCCCACGG [226-F2-001-D41]
- pKd ([2]; dC at 41, HBS-EP pH 7.4): 9.26

Sequence: CCGUGCUGUCGGAGACUACUCGUCGAGUAGAAAUAGGUCCCCUCCCACGG [226-F2-001-D44]
- pKd ([2]; dC at 44, HBS-EP pH 7.4): 9.28

Sequence: CCGUGCUGUCGGAGACUACUCGUCGAGUAGAAAUAGGUCCCCUCCCACGG [226-F2-001]
- pKd ([2]; HBS-EP pH 7.4): 8.59

Sequence: GCAGTGGGGAAATGGGAGGGCTAGGTGGAAGGAATCTGAGCTACTGC [257-E1-001]
- pKd [3]: 6.73

Sequence: GCCUGAUGUGGUGGUGAAGGGUUGUUGGGUGUCGACGCACAGGC [NOX-D19001]
- pKd [4]: 8.85
